B1: Hairpin Ribozyme (parent)
chain: GUCCUCUUUCACGUGCGCGUGAAAGAGAGAAGUGAACCAGAGAAACACACGUUGUGGUAUAUUACCUGGUA

Variants of: B1
Assay: self-cleavage, relative activity (ratio to wild type); higher = more cleavage; co-transcriptional

| Variant | self-cleavage |
| --- | --- |
| GUCCUCUUUCACGUGCGCGUGAAAGAGAGAAGUAAACCAGAGAAACACACGUUGUGGUUUAUUACCUGGUA [G34A A59U] | 0.203 |
| GUCCUCUUUCACGUGCGCGUGAAAGAGAGAAGUAAACCAGAGAAACACACGUUGUGGUAUCUUACCUGGUA [G34A A61C] | 0.336 |
| GUCCUCUUUCACGUGCGCGUGAAAGAGAGAAGUAAACCAGAGAAACACACGUUGUGGUAUAUUCCCUGGUA [G34A A64C] | 0.349 |
| GUCCUCUUUCACGUGCGCGUGAAAGAGAGAAGUAAACCAGAGAAACACACGUUGUGGUAUAUUACCUGGUG [G34A A71G] | 1.41 |
| GUCCUCUUUCACGUGCGCGUGAAAGAGAGAAGUAAAGCAGAGAAACACACGUUGUGGUAUAUUACCUGGUA [G34A C37G] | 0.519 |
| GUCCUCUUUCACGUGCGCGUGAAAGAGAGAAGUAAACAAGAGAAACACACGUUGUGGUAUAUUACCUGGUA [G34A C38A] | 0.267 |
| GUCCUCUUUCACGUGCGCGUGAAAGAGAGAAGUAAACGAGAGAAACACACGUUGUGGUAUAUUACCUGGUA [G34A C38G] | 0.195 |
| GUCCUCUUUCACGUGCGCGUGAAAGAGAGAAGUAAACCAGAGAAAGACACGUUGUGGUAUAUUACCUGGUA [G34A C46G] | 0.159 |
| GUCCUCUUUCACGUGCGCGUGAAAGAGAGAAGUAAACCAGAGAAACACAAGUUGUGGUAUAUUACCUGGUA [G34A C50A] | 0.312 |
| GUCCUCUUUCACGUGCGCGUGAAAGAGAGAAGUAAACCAGAGAAACACACGUUGUGGUAUAUUAACUGGUA [G34A C65A] | 1.26 |
| GUCCUCUUUCACGUGCGCGUGAAAGAGAGAAGUAAACCAGAGAAACACACGUUGUGGUAUAUUACGUGGUA [G34A C66G] | 0.184 |
| GUCCUCUUUCACGUGCGCGUGAAAGAGAGAAGUAAACCAGAGAAACACACGUUGUGGUAUAUUACUUGGUA [G34A C66U] | 0.609 |
| GUCCUCUUUCACGUGCGCGUGAAAGAGAGAAGUAAACCACAGAAACACACGUUGUGGUAUAUUACCUGGUA [G34A G40C] | 0.174 |
| GUCCUCUUUCACGUGCGCGUGAAAGAGAGAAGUAAACCAGAAAAACACACGUUGUGGUAUAUUACCUGGUA [G34A G42A] | 0.356 |
| GUCCUCUUUCACGUGCGCGUGAAAGAGAGAAGUAAACCAGACAAACACACGUUGUGGUAUAUUACCUGGUA [G34A G42C] | 0.516 |
| GUCCUCUUUCACGUGCGCGUGAAAGAGAGAAGUAAACCAGAGAAACACACUUUGUGGUAUAUUACCUGGUA [G34A G51U] | 1.28 |
| GUCCUCUUUCACGUGCGCGUGAAAGAGAGAAGUAAACCAGAGAAACACACGUUUUGGUAUAUUACCUGGUA [G34A G54U] | 0.719 |
| GUCCUCUUUCACGUGCGCGUGAAAGAGAGAAGUAAACCAGAGAAACACACGUUGUCGUAUAUUACCUGGUA [G34A G56C] | 0.13 |
| GUCCUCUUUCACGUGCGCGUGAAAGAGAGAAGUAAACCAGAGAAACACACGUUGUUGUAUAUUACCUGGUA [G34A G56U] | 0.128 |
| GUCCUCUUUCACGUGCGCGUGAAAGAGAGAAGUAAACCAGAGAAACACACGUUGUGCUAUAUUACCUGGUA [G34A G57C] | 0.247 |
| GUCCUCUUUCACGUGCGCGUGAAAGAGAGAAGUAAACCAGAGAAACACACGUUGUGUUAUAUUACCUGGUA [G34A G57U] | 0.461 |
| GUCCUCUUUCACGUGCGCGUGAAAGAGAGAAGUAAACCAGAGAAACACACGUUGUGGUAUAUUACCUAGUA [G34A G68A] | 0.246 |
| GUCCUCUUUCACGUGCGCGUGAAAGAGAGAAGUAAACCAGAGAAACACACGUUGUGGUAUAUUACCUCGUA [G34A G68C] | 0.283 |
| GUCCUCUUUCACGUGCGCGUGAAAGAGAGAAGUAAACCAGAGAAACACACGCUGUGGUAUAUUACCUGGUA [G34A U52C] | 0.857 |
| GUCCUCUUUCACGUGCGCGUGAAAGAGAGAAGUAAACCAGAGAAACACACGUUGAGGUAUAUUACCUGGUA [G34A U55A] | 0.518 |
| GUCCUCUUUCACGUGCGCGUGAAAGAGAGAAGUAAACCAGAGAAACACACGUUGGGGUAUAUUACCUGGUA [G34A U55G] | 0.541 |

| Variant | self-cleavage |
| --- | --- |
| GUCCUCUUUCACGUGCGCGUGAAAGAGAGAAGUAAACCAGAGAAACACACGUUGUGGCAUAUUACCUGGUA [G34A U58C] | 1.11 |
| GUCCUCUUUCACGUGCGCGUGAAAGAGAGAAGUAAACCAGAGAAACACACGUUGUGGUAAAUUACCUGGUA [G34A U60A] | 1.13 |
| GUCCUCUUUCACGUGCGCGUGAAAGAGAGAAGUAAACCAGAGAAACACACGUUGUGGUACAUUACCUGGUA [G34A U60C] | 1.5 |
| GUCCUCUUUCACGUGCGCGUGAAAGAGAGAAGUAAACCAGAGAAACACACGUUGUGGUAUACUACCUGGUA [G34A U62C] | 0.38 |
| GUCCUCUUUCACGUGCGCGUGAAAGAGAGAAGUAAACCAGAGAAACACACGUUGUGGUAUAGUACCUGGUA [G34A U62G] | 0.347 |
| GUCCUCUUUCACGUGCGCGUGAAAGAGAGAAGUAAACCAGAGAAACACACGUUGUGGUAUAUAACCUGGUA [G34A U63A] | 0.259 |
| GUCCUCUUUCACGUGCGCGUGAAAGAGAGAAGUAAACCAGAGAAACACACGUUGUGGUAUAUGACCUGGUA [G34A U63G] | 0.157 |
| GUCCUCUUUCACGUGCGCGUGAAAGAGAGAAGUAAACCAGAGAAACACACGUUGUGGUAUAUUACCUGGAA [G34A U70A] | 1.14 |
| GUCCUCUUUCACGUGCGCGUGAAAGAGAGAAGUCAACCAGAGAAACACACGUUGUGGUAUAUUACCUGGUA [G34C] | 1.4 |
| GUCCUCUUUCACGUGCGCGUGAAAGAGAGAAGUCAGCCAGAGAAACACACGUUGUGGUAUAUUACCUGGUA [G34C A36G] | 1.24 |
| GUCCUCUUUCACGUGCGCGUGAAAGAGAGAAGUCAACCGGAGAAACACACGUUGUGGUAUAUUACCUGGUA [G34C A39G] | 1.03 |
| GUCCUCUUUCACGUGCGCGUGAAAGAGAGAAGUCAACCUGAGAAACACACGUUGUGGUAUAUUACCUGGUA [G34C A39U] | 1.02 |
| GUCCUCUUUCACGUGCGCGUGAAAGAGAGAAGUCAACCAGUGAAACACACGUUGUGGUAUAUUACCUGGUA [G34C A41U] | 1.42 |
| GUCCUCUUUCACGUGCGCGUGAAAGAGAGAAGUCAACCAGAGCAACACACGUUGUGGUAUAUUACCUGGUA [G34C A43C] | 0.144 |
| GUCCUCUUUCACGUGCGCGUGAAAGAGAGAAGUCAACCAGAGUAACACACGUUGUGGUAUAUUACCUGGUA [G34C A43U] | 0.233 |
| GUCCUCUUUCACGUGCGCGUGAAAGAGAGAAGUCAACCAGAGACACACACGUUGUGGUAUAUUACCUGGUA [G34C A44C] | 0.116 |
| GUCCUCUUUCACGUGCGCGUGAAAGAGAGAAGUCAACCAGAGAAUCACACGUUGUGGUAUAUUACCUGGUA [G34C A45U] | 0.33 |
| GUCCUCUUUCACGUGCGCGUGAAAGAGAGAAGUCAACCAGAGAAACGCACGUUGUGGUAUAUUACCUGGUA [G34C A47G] | 0.448 |
| GUCCUCUUUCACGUGCGCGUGAAAGAGAGAAGUCAACCAGAGAAACUCACGUUGUGGUAUAUUACCUGGUA [G34C A47U] | 0.465 |
| GUCCUCUUUCACGUGCGCGUGAAAGAGAGAAGUCAACCAGAGAAACACACGUUGUGGUGUAUUACCUGGUA [G34C A59G] | 0.174 |
| GUCCUCUUUCACGUGCGCGUGAAAGAGAGAAGUCAACCAGAGAAACACACGUUGUGGUAUUUUACCUGGUA [G34C A61U] | 1.24 |
| GUCCUCUUUCACGUGCGCGUGAAAGAGAGAAGUCAACCAGAGAAACACACGUUGUGGUAUAUUCCCUGGUA [G34C A64C] | 0.578 |
| GUCCUCUUUCACGUGCGCGUGAAAGAGAGAAGUCAACCAGAGAAACACACGUUGUGGUAUAUUACCUGGUU [G34C A71U] | 1.27 |
| GUCCUCUUUCACGUGCGCGUGAAAGAGAGAAGUCAAUCAGAGAAACACACGUUGUGGUAUAUUACCUGGUA [G34C C37U] | 1.34 |
| GUCCUCUUUCACGUGCGCGUGAAAGAGAGAAGUCAACAAGAGAAACACACGUUGUGGUAUAUUACCUGGUA [G34C C38A] | 0.563 |
| GUCCUCUUUCACGUGCGCGUGAAAGAGAGAAGUCAACGAGAGAAACACACGUUGUGGUAUAUUACCUGGUA [G34C C38G] | 0.683 |

| Variant | self-cleavage |
| --- | --- |
| GUCCUCUUUCACGUGCGCGUGAAAGAGAGAAGUCAACUAGAGAAACACACGUUGUGGUAUAUUACCUGGUA [G34C C38U] | 1.28 |
| GUCCUCUUUCACGUGCGCGUGAAAGAGAGAAGUCAACCAAAGAAACACACGUUGUGGUAUAUUACCUGGUA [G34C G40A] | 0.576 |
| GUCCUCUUUCACGUGCGCGUGAAAGAGAGAAGUCAACCAGAGAAACACACUUUGUGGUAUAUUACCUGGUA [G34C G51U] | 1.4 |
| GUCCUCUUUCACGUGCGCGUGAAAGAGAGAAGUCAACCAGAGAAACACACGUUCUGGUAUAUUACCUGGUA [G34C G54C] | 0.735 |
| GUCCUCUUUCACGUGCGCGUGAAAGAGAGAAGUCAACCAGAGAAACACACGUUGUGGUAUAUUACCUUGUA [G34C G68U] | 0.658 |
| GUCCUCUUUCACGUGCGCGUGAAAGAGAGAAGUCAACCAGAGAAACACACGUUGUGGUAUAUUACCUGAUA [G34C G69A] | 0.896 |
| GUCCUCUUUCACGUGCGCGUGAAAGAGAGAAGUCAACCAGAGAAACACACGCUGUGGUAUAUUACCUGGUA [G34C U52C] | 1.6 |
| GUCCUCUUUCACGUGCGCGUGAAAGAGAGAAGUCAACCAGAGAAACACACGUUGUGGCAUAUUACCUGGUA [G34C U58C] | 1.4 |
| GUCCUCUUUCACGUGCGCGUGAAAGAGAGAAGUCAACCAGAGAAACACACGUUGUGGUAUACUACCUGGUA [G34C U62C] | 1.1 |
| GUCCUCUUUCACGUGCGCGUGAAAGAGAGAAGUCAACCAGAGAAACACACGUUGUGGUAUAUCACCUGGUA [G34C U63C] | 0.506 |
| GUCCUCUUUCACGUGCGCGUGAAAGAGAGAAGUCAACCAGAGAAACACACGUUGUGGUAUAUUACCAGGUA [G34C U67A] | 0.451 |
| GUCCUCUUUCACGUGCGCGUGAAAGAGAGAAGUCAACCAGAGAAACACACGUUGUGGUAUAUUACCUGGAA [G34C U70A] | 1.12 |
| GUCCUCUUUCACGUGCGCGUGAAAGAGAGAAGUCAACCAGAGAAACACACGUUGUGGUAUAUUACCUGGGA [G34C U70G] | 1.23 |
| GUCCUCUUUCACGUGCGCGUGAAAGAGAGAAGUUAACCAGAGAAACACACGUUGUGGUAUAUUACCUGGUA [G34U] | 1.42 |
| GUCCUCUUUCACGUGCGCGUGAAAGAGAGAAGUUACCCAGAGAAACACACGUUGUGGUAUAUUACCUGGUA [G34U A36C] | 1.02 |
| GUCCUCUUUCACGUGCGCGUGAAAGAGAGAAGUUAGCCAGAGAAACACACGUUGUGGUAUAUUACCUGGUA [G34U A36G] | 0.909 |
| GUCCUCUUUCACGUGCGCGUGAAAGAGAGAAGUUAACCCGAGAAACACACGUUGUGGUAUAUUACCUGGUA [G34U A39C] | 0.857 |
| GUCCUCUUUCACGUGCGCGUGAAAGAGAGAAGUUAACCAGAGAAUCACACGUUGUGGUAUAUUACCUGGUA [G34U A45U] | 0.351 |
| GUCCUCUUUCACGUGCGCGUGAAAGAGAGAAGUUAACCAGAGAAACGCACGUUGUGGUAUAUUACCUGGUA [G34U A47G] | 0.444 |
| GUCCUCUUUCACGUGCGCGUGAAAGAGAGAAGUUAACCAGAGAAACUCACGUUGUGGUAUAUUACCUGGUA [G34U A47U] | 0.876 |
| GUCCUCUUUCACGUGCGCGUGAAAGAGAGAAGUUAACCAGAGAAACACACGUUGUGGUGUAUUACCUGGUA [G34U A59G] | 0.23 |
| GUCCUCUUUCACGUGCGCGUGAAAGAGAGAAGUUAACCAGAGAAACACACGUUGUGGUUUAUUACCUGGUA [G34U A59U] | 0.192 |
| GUCCUCUUUCACGUGCGCGUGAAAGAGAGAAGUUAAACAGAGAAACACACGUUGUGGUAUAUUACCUGGUA [G34U C37A] | 0.946 |
| GUCCUCUUUCACGUGCGCGUGAAAGAGAGAAGUUAACCAGAGAAAAACACGUUGUGGUAUAUUACCUGGUA [G34U C46A] | 0.239 |

Source: the RNAGym collection of RNA variant scans (doi:10.7554/elife.80360)
